Here are results for 17 sequences from the supplement of paper PMC9170038.

In data set [1] the test system is MS2 coat protein. Kind of data set: apparent KD of MS2 coat protein, switch ON state; designed switch direction (-1 OFF switch, 1 ON switch): 1; higher = weaker reporter binding. The conditions noted are these: FMN input: 0 or 200 uM; Eterna round: R93 (includes R88 designs). In short, it runs like this: (§1)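 Designed RNA switches were transcribed on-chip from Illumina sequencing clusters. They were then titrated with SNAP-549-labelled MS2 coat protein (twofold steps, 0.7 or 1.5 nM to 3 µM; 0.8–1.5 h to 10–20 min per step) in 100 mM Tris-HCl pH 7.5, 80 mM KCl, 4 mM MgCl2, without or with constant ligand. Apparent KD is the per-design median of normalised cluster binding-curve fits.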

In data set [2] the test system is MS2 coat protein. Kind of data set: apparent KD of MS2 coat protein, switch OFF state (with FMN for OFF switches, without FMN for ON switches); designed switch direction (-1 OFF switch, 1 ON switch): 1; higher = weaker reporter binding. The conditions noted are these: FMN input: 0 or 200 uM; Eterna round: R93 (includes R88 designs). In short, it runs like this:
as §1

Consider “AUAAAACAUGAGGAUCACCCAUGUAAAAAUAUGGGAGGAUAUACGAAAUAAAAUAAAUACGUAGAAGGCCUAAAAA [SS! MT 20]”, for which the “apparent KD of MS2 coat protein” value in the data set on MS2 coat protein [1] came to 20.2 nM; in the data set with MS2 coat protein [2], 111 nM.
As to “GACAGACAUGAGGAUCACCCAUGUAGAAUUAUGGGAGGAUAUACAAAGACGAGAGUCAGAGUAGAAGGCCUAGGAA [salish99-ss1-167]”, the “apparent KD of MS2 coat protein” value came out at 23.2 nM in the data set on MS2 coat protein [1] and 52.8 nM in the data set with MS2 coat protein [2].
For “AGAAAUAAAAGAGAGGAUAUCCAAAAGAAAACAUGAGGAUCACCCAUGUAAAAGAAAAUAAAAUGGGAGAAGGCUCGAAAUAAGA [Topaz 21]”, in that order: 18.3 nM and 107 nM.
For “CCGAUACAUGAGGAUCACCCAUGUUAGGUAGAACAAGGAUAUCUAGAUAGAUAAAAAUAUAGAGAAGGUGUAUAAC [JR_SS001_Sub208]”, in that order: 17.1 nM and 26 nM.
In the case of “GGGAGGAAGAGAGAGGAUAUCCAAAGGAAAACAUGAGGAUCACCCAUGUAAAAGGUAGGAAAUUGGGAGAAGGCUCAAAAGAGUG [salish99-ss2-043]”, the “apparent KD of MS2 coat protein” value in the data set with MS2 coat protein [1] is 13.7 nM; in the data set with MS2 coat protein [2] it was 22.2 nM.
For “AAAAAACAUGAGGAUCACCCAUGUGAGAACAUGGGAGGAUAUACGAGGACGAGAGUCAAGGUAGAAGGCCUAAAAG [Garnet 73]”, the “apparent KD of MS2 coat protein” value is 50.1 nM in the data set with MS2 coat protein [1] and 13.6 nM in the data set with MS2 coat protein [2].
For “GGGAGACAUGAGGAUCACCCAUGUGAGAAGAGGCGAGGAUAUCGAAAGAAAGAAGAGAAACGAGAAGGCGCGAGUG [salish99-SS1-058]”, in that order: 64.8 nM and 82 nM.
The matching figures for “AAAAGACAUGAGGAUCACCCAUGUCAAGACAUAGGAGGAUAUGUCAUGAAAAAAGACUUGACAGAAGGCCUUUGUC [SS1 - 51]”: 16.7 nM and 17.4 nM.
“CGGCUACAUGAGGAUCACCCAUGUCAGCCGAGGGCAGGAUAUGUGGUUCAUUCUCAAGCAACAGAAGGGUCAAAAG [Istiacedi]”: the “apparent KD of MS2 coat protein” value came to 16.9 nM in the data set with MS2 coat protein [1] and 18.7 nM in the data set on MS2 coat protein [2].
For “AACAAUCUAUCUGAGGAUAUCAUGUCAAAGACAUGAGGAUCACCCAUGUGUAGGAAAACUACAUAUGAGAAGGCAGAUAGAUUGA [SS2 :P - 598]”, in that order: 610 nM and 103 nM.
The matching figures for “UGUCUACCUGAUGAGGAUAUCCCACAGGCGACAUGAGGAUCACCCAUGUAAAGUAAGCGUAGGCGGGAGAAGGCAUGGCGGAGAC [Larearre]”: 14.5 nM and 30.7 nM.
For the sequence “UGGAGACAUGAGGAUCACCCAUGUGAGAAGAGGCGAGGAUAUCGAAAGAAAGAAGAGAAACGAGAAGGCGCGAGAU [salish99-SS1-034]”, the “apparent KD of MS2 coat protein” value is 21 nM with MS2 coat protein [1] and 27.6 nM in the data set on MS2 coat protein [2].
Consider “AACAAUCUAUCUGAGGAUAUCAUGACAAAGACAUGAGGAUCACCCAUGUCCAGGAAAACUGGUUAUGAGAAGGCAGAUAGAUUGA [SS2: 1112]”, for which the figures for the “apparent KD of MS2 coat protein” value in the data set on MS2 coat protein [1] and in the data set with MS2 coat protein [2] were 9.7 nM and 13.2 nM, respectively.
For “AAAAAACAUGAGGAUCACCCAUGUAAAAAUAUGGGAGGAUAUACAAACACGAAAGUGAAAGUAGAAGGCCUAAAAA [SS! MT 17]”, in that order: 19 nM and 85.3 nM.
For the sequence “AGAAAUAAAAGGCAGGAUAUCCAAAAGAAAACAUGAGGAUCACCCAUGUAAAAGAAAAAAAAAUGGGAGAAGGGCCAAAUAAAGA [Mat - Same State 2 - Eli mod - D90]”, the “apparent KD of MS2 coat protein” value was 20.7 nM with MS2 coat protein [1] and 21.4 nM in the data set on MS2 coat protein [2].
The matching figures for “CGGAGACAUGAGGAUCACCCAUGUGAGAAGAGGCGAGGAUAUUGAAAGAAAGAAGAGAAAUGAGAAGGCGCGAGCC [salish99-SS1-083]”: 55.3 nM and 38.1 nM.
The matching figures for “CCGAUGGUAUACUAGGAUAUGGGCGCCCUUACAUGAGGAUCACCCAUGUUAUCACAAAUCCGCGGCCAGAAGGAGUUCAUGGGAG [Ustiririra]”: 62.8 nM and 151 nM.
